# Reference: paper PMC9482650, “Quantitative fragmentomics allow affinity mapping of interactomes” (Nature Communications, 2022)
# T1: APBA3_1, O96018
# T1 sequence (O96018 389-490, limits assumed, looked up): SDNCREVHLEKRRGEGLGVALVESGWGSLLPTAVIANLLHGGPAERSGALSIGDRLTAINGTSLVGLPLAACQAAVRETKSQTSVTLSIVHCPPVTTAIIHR
# T2: ARHGEF11, O15085
# T2 sequence (O15085 42-136, limits assumed, looked up): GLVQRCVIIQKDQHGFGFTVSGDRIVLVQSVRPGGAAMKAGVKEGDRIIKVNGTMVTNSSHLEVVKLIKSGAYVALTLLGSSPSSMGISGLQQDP
# T3: DFNB31_2, Q9P202
# T3 sequence (Q9P202 274-371, limits assumed, looked up): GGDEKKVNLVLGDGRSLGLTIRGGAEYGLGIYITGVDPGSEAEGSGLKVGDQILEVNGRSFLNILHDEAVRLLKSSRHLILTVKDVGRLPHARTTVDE
# T4: DFNB31_3, Q9P202
# T4 sequence (Q9P202 811-907, limits assumed, looked up): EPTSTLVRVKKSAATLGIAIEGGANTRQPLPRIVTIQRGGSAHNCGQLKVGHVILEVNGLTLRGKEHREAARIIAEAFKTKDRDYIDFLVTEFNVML
# T5: HTRA3, P83110
# T5 sequence (P83110 354-453, limits assumed, looked up): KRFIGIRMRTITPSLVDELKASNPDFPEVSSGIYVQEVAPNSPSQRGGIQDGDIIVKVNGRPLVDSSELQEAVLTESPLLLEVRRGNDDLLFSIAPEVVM
# T6: LNX2_2, Q8N448
# T6 sequence (Q8N448 334-432, limits assumed, looked up): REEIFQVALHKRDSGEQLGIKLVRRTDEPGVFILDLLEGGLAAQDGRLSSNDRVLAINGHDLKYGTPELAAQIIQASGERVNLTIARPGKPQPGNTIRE
# T7: MPDZ_12, O75970
# T7 sequence (O75970 1857-1958, limits assumed, looked up): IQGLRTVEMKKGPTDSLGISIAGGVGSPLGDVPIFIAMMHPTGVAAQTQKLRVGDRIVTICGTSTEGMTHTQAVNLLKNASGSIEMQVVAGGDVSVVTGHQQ
# T8: RAPGEF6, Q8TEU7
# T8 sequence (Q8TEU7 525-625, limits assumed, looked up): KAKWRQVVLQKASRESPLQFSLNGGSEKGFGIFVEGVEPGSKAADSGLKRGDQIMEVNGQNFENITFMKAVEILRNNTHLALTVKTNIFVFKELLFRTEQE
# T9: SNTB1, Q13884
# T9 sequence (Q13884 107-205, limits assumed, looked up): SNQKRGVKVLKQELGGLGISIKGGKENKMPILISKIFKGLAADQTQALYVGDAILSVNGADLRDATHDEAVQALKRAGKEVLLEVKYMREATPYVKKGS
# T10: SNTG1, Q9NSN8
# T10 sequence (Q9NSN8 52-150, limits assumed, looked up): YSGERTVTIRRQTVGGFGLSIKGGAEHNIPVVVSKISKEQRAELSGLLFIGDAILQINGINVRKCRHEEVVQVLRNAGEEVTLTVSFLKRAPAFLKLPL
# T11: TJP3_3, O95049
# T11 sequence (O95049 375-456, limits assumed, looked up): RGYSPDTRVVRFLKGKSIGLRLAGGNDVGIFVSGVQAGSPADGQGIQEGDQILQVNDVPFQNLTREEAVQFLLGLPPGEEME
# Columns and labels:
# Test in all cases: holdup assay
# Parameters in all cases: key: below the threshold = too weak to quantify, mostly under pKd 3.1 to 4
# Details in all cases: plain residues with an end cap or a label only (N-terminal biotin on a linker: ado-ado)
# [1] = molecular target: T1, APBA3_1, O96018
# [2] = molecular target: T2, ARHGEF11, O15085
# [3] = molecular target: CASK, O14936
# [4] = molecular target: T3, DFNB31_2, Q9P202
# [5] = molecular target: T4, DFNB31_3, Q9P202
# [6] = molecular target: DLG1_1, Q12959
# [7] = molecular target: DLG1_2, Q12959
# [8] = molecular target: GIPC2, Q8TF65
# [9] = molecular target: GOPC, Q9HD26
# [10] = molecular target: T5, HTRA3, P83110
# [11] = molecular target: IL16_3, Q14005
# [12] = molecular target: Inadl_10, Q8NI35
# [13] = molecular target: Inadl_4, Q8NI35
# [14] = molecular target: T6, LNX2_2, Q8N448
# [15] = molecular target: MAGI2_6, Q86UL8
# [16] = molecular target: T7, MPDZ_12, O75970
# [17] = molecular target: NHERF4_2, Q86UT5
# [18] = molecular target: NOS1, P29475
# [19] = molecular target: PICK1, Q9NRD5
# [20] = molecular target: PTPN3, P26045
# [21] = molecular target: T8, RAPGEF6, Q8TEU7
# [22] = molecular target: SCRIB_1, Q14160
# [23] = molecular target: T9, SNTB1, Q13884
# [24] = molecular target: T10, SNTG1, Q9NSN8
# [25] = molecular target: SNX27, Q96L92
# [26] = molecular target: TJP1_3, Q07157
# [27] = molecular target: T11, TJP3_3, O95049
# Sequence of CASK, O14936 (O14936 487-570): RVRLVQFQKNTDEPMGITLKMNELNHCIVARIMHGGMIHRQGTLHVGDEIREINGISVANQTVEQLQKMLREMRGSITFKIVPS
# Sequence of PICK1, Q9NRD5 (Q9NRD5 17-115): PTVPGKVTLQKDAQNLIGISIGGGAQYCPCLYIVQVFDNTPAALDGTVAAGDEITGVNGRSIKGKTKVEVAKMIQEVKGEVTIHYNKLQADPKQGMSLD
# Sequence of Inadl_10, Q8NI35 (Q8NI35 1673-1763): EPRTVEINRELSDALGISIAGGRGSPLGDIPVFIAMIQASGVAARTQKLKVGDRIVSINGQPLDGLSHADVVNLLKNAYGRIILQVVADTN
# Sequence of Inadl_4, Q8NI35 (Q8NI35 547-651): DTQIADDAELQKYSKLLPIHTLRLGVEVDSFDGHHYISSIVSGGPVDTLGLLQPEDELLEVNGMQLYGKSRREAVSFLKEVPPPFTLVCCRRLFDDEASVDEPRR
# Sequence of IL16_3, Q14005 (Q14005 1107-1207): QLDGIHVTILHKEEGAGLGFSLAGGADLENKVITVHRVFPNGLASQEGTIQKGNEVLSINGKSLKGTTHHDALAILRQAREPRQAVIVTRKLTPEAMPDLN
# Sequence of TJP1_3, Q07157 (Q07157 416-512): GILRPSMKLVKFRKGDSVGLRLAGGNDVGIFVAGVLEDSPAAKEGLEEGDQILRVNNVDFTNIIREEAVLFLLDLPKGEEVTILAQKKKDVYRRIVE
# Sequence of NHERF4_2, Q86UT5 (Q86UT5 220-308): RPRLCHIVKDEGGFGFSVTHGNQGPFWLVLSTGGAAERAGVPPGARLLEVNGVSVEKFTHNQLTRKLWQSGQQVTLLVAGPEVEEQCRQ
# Sequence of PTPN3, P26045 (P26045 505-587): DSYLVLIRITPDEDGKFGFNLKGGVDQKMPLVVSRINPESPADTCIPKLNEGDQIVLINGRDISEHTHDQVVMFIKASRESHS
# Sequence of NOS1, P29475 (P29475 9-101): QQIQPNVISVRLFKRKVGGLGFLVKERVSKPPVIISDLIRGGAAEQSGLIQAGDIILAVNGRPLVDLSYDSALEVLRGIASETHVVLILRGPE
# Sequence of SCRIB_1, Q14160 (Q14160 718-814): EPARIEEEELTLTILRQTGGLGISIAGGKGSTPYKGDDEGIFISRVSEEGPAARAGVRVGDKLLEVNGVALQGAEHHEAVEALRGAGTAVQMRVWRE
# Sequence of MAGI2_6, Q86UL8 (Q86UL8 1141-1229): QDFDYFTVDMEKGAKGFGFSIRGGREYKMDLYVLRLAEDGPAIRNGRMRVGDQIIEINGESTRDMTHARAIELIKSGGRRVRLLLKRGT
# Sequence of GIPC2, Q8TF65 (Q8TF65 112-203): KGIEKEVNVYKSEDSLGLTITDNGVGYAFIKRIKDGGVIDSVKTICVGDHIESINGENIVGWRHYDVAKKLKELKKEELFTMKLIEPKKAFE
Binder,pKd [1],pKd [2],pKd [3],pKd [4],pKd [5],pKd [6],pKd [7],pKd [8],pKd [9],pKd [10],pKd [11],pKd [12],pKd [13],pKd [14],pKd [15],pKd [16],pKd [17],pKd [18],pKd [19],pKd [20],further results
"DSEEELPTRL [GRK6, P43250]",below the threshold,3.78,below the threshold,below the threshold,3.53,below the threshold,below the threshold,3.65,3.83,below the threshold,below the threshold,below the threshold,below the threshold,below the threshold,below the threshold,3.47,below the threshold,3.61,4.25,3.77,pKd [21]: below the threshold; pKd [22]: 3.53; pKd [23]: below the threshold; pKd [24]: below the threshold; pKd [25]: 3.85; pKd [26]: below the threshold; pKd [27]: below the threshold
"KPDKQEEFYA [SDC3, O75056]",below the threshold,below the threshold,below the threshold,below the threshold,3.49,below the threshold,below the threshold,below the threshold,below the threshold,4.41,below the threshold,below the threshold,below the threshold,below the threshold,below the threshold,3.73,below the threshold,below the threshold,below the threshold,3.8,pKd [21]: below the threshold; pKd [22]: below the threshold; pKd [23]: below the threshold; pKd [24]: below the threshold; pKd [25]: below the threshold; pKd [26]: below the threshold; pKd [27]: below the threshold
"FVFESRKEIL [TBPL1, P62380]",below the threshold,below the threshold,below the threshold,below the threshold,below the threshold,below the threshold,below the threshold,below the threshold,below the threshold,below the threshold,below the threshold,below the threshold,below the threshold,below the threshold,below the threshold,below the threshold,below the threshold,3.68,below the threshold,below the threshold,pKd [21]: below the threshold; pKd [22]: below the threshold; pKd [23]: below the threshold; pKd [24]: below the threshold; pKd [25]: below the threshold; pKd [26]: below the threshold; pKd [27]: below the threshold
"PLATCDETSI [SEMA4F, O95754]",below the threshold,below the threshold,below the threshold,below the threshold,3.7,3.59,3.92,3.52,below the threshold,below the threshold,below the threshold,below the threshold,below the threshold,3.52,3.87,below the threshold,below the threshold,below the threshold,below the threshold,4.72,pKd [21]: below the threshold; pKd [22]: 4.92; pKd [23]: 4.51; pKd [24]: 4.53; pKd [25]: 5.26; pKd [26]: below the threshold; pKd [27]: below the threshold
"GTMFLRETSL [GUCY1A2, P33402]",below the threshold,4.52,below the threshold,4.53,3.5,4.23,4.81,4,4.43,below the threshold,below the threshold,below the threshold,below the threshold,below the threshold,4.51,below the threshold,below the threshold,3.84,4.12,5.04,pKd [21]: below the threshold; pKd [22]: 5.69; pKd [23]: 5.39; pKd [24]: 5.09; pKd [25]: 5.72; pKd [26]: below the threshold; pKd [27]: below the threshold
